Reference: publication PMC10623010 (Proceedings of the National Academy of Sciences of the …, 2023)

Molecular target: T1, recombinant human lipoprotein lipase (hLPL) (human, UniProt P06858 28-475)
T1 sequence: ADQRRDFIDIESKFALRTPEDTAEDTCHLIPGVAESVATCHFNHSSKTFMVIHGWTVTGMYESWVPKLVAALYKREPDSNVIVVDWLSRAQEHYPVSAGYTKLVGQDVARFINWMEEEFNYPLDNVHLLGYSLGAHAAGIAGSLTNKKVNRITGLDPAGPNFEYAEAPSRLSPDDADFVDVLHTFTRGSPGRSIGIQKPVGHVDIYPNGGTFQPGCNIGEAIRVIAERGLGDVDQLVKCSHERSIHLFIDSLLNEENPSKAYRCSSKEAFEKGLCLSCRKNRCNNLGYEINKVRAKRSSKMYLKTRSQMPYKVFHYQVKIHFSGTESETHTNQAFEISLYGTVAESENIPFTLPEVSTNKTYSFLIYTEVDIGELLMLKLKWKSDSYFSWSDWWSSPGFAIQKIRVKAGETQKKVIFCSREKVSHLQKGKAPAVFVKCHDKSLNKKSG
Assay: pull-down

B1: recombinant mouse GPIHBP1 (mGPIHBP1) (natural protein)
chain: QEDGDADPEPENYNYDDDDDEEEEEETNMIPGSRDRAPLQCYFCQVLHSGESCNQTQSCSSSKPFCITLVSHSGTDKGYLTTYSMWCTDTCQPIIKTVGGTQMTQTCCQSTLCNIPPWQNPQVQNPLGGRADSPLESGTRHPQGGKFSHPQVVKAAHPQSDGANLPKSGKANQPQG
- binding result: binds
